Assay results as given in patent publication US20240052034A1 (PANDION OPERATIONS, published 2024).
Where “and” joins values, the source holds several entries; their conditions need not be identical. Equal values may be shown once. Each block holds one binder with its values, some of them ahead of it.

Tests used:
Fc-tagged mouse PD-1 = target: T1, Fc-tagged mouse PD-1 (mouse, UniProt Q02242 25-167, limits assumed); assay: BLI (biosensor): Fc-tagged PD-1 on anti-human IgG Fc tips, fragment in solution
T1 construct: Printed 'Fe-tagged', read as Fc-tagged; also called Fe-tagged mouse PD-1 (so in the source); not shown: Fc tag
T1 sequence (looked up): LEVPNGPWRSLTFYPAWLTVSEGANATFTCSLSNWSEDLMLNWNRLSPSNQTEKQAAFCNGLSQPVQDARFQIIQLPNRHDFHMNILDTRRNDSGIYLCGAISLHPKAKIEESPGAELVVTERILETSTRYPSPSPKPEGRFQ
Protocol: (§1) Anti-human IgG Fc (AHC) or Streptavidin (SA) biosensor were equilibrated in assay buffer for 20 minutes. Fe-tagged mouse and cynomolgus PD-1 was diluted to 5 μg/mL and biotinylated huPD-1 article was diluted to 0.5 μg/mL in assay buffer (1×PBS, 1% BSA, 0.05% Tween20). […] PD-1 was loaded on tips for 180 s followed by a 180 s association phase with PD-1 and 180 s dissociation phase in assay buffer.

[1] = target: T2, Fc-tagged cynomolgus PD-1 (cynomolgus, UniProt B0LAJ3 25-170); assay: as above
T2 construct: Printed 'Fe-tagged', read as Fc-tagged; also called cyno PD-1; Fe-tagged cynomolgus PD-1 (so in the source)
T2 sequence (B0LAJ3 entry or part of it limits assumed): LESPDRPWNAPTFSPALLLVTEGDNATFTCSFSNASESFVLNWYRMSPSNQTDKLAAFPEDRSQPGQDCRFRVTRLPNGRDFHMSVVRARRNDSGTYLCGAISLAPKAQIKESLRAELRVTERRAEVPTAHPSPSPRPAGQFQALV
Protocol: as §1

biotinylated huPD-1 = target: T3, biotinylated huPD-1 (human, UniProt Q15116 25-167, limits assumed, biotinylated (site not stated)); assay: BLI (biosensor): biotinylated huPD-1 on streptavidin tips, fragment in solution
T3 construct: also called human PD-1
T3 sequence (Q15116 25-167 limits assumed): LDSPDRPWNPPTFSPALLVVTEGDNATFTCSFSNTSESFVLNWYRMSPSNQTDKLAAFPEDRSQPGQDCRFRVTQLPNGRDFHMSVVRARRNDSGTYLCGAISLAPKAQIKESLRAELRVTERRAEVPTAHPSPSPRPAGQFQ
Protocol: as §1

[2] = target: PD-1 on PD-1 reporter Jurkat cells (UniProt Q15116 25-288, limits assumed); assay: cell-based or functional assay
PD-1 on PD-1 reporter Jurkat cells, sequence (Q15116 25-288 limits assumed): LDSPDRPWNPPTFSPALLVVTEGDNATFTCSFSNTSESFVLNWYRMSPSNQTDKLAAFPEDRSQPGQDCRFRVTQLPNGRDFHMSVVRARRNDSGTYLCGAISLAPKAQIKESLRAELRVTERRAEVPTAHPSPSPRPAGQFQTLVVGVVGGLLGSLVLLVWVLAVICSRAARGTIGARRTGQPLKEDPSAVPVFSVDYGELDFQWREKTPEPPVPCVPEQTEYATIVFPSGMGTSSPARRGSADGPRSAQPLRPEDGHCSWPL

human PD-1 [3] = target: T4, human PD-1 (human, UniProt Q15116 25-167, limits assumed); assay: BLI (biosensor): test article on anti-human IgG Fc tips, PD-1 in solution
T4 construct: also called huPD-1
T4 sequence (Q15116 25-167 limits assumed): as the sequence (Q15116 25-167 limits assumed) above
Protocol: (§2) Anti-human IgG Fc (AHC) biosensors were equilibrated in assay buffer for 20 minutes. Test articles were diluted to 10 μg/mL in assay buffer (lx PBS, 1% BSA, 0.05% Tween20). A seven-point serial dilution of human PD-1 was prepared in assay buffer, starting at 1000 nM down to 15.625 nM (human PD-1) or 2000 nM down to 31.25 nM (mouse PD-1). Test articles were loaded on tips for 180 s followed by a 180 s association phase with PD-1 and 180 s dissociation phase in assay buffer.
as §2, with “article was” for “articles were”, “(human and cyno” for “(human”

mouse PD-1 [4] = target: T5, mouse PD-1 (mouse, UniProt Q02242 25-167, limits assumed); assay: as above
T5 sequence (looked up): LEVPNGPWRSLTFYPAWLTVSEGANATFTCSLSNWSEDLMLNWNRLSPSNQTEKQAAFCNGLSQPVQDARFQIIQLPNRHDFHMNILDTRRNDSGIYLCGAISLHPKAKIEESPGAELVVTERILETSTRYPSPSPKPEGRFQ
Protocol: as §2
as §2, with “article was” for “articles were”, “(human and cyno” for “(human”

cynomolgus PD-1 [5] = target: T6, cynomolgus PD-1 (cynomolgus, UniProt B0LAJ3 25-170); assay: as above
T6 construct: also called cyno PD-1
T6 sequence (B0LAJ3 entry or part of it limits assumed): as the sequence (B0LAJ3 entry or part of it limits assumed) above
Protocol: as §2
as §2, with “article was” for “articles were”, “(human and cyno” for “(human”

human PD-1 [6] = target: T4, human PD-1; assay: ELISA: plate-coated PD-1, detection by anti-kappa-HRP
mouse PD-1 [7] = target: T5, mouse PD-1; assay: as above
cynomolgus PD-1 [8] = target: T6, cynomolgus PD-1; assay: as above

Kd (Fc-tagged mouse PD-1): 176 nM
Kd [1]: 172 nM
Kd (biotinylated huPD-1): 140 nM
B3: Fab moiety of the PD1AB38 (Fab, V domains shown)
VH: EVQLVQSGAEVKKPGASVKVSCKASGYSFTTYYMHWVRQAPGQGLEWMGIINPSGGSTSYAQKFQGRVTMTRDTSTSTVYMELSSLRSEDTAVYYCASGWVYWGQGTLVTVSS
VL: DIQMTQSPSSLSASVGDRVTITCQASRDIKNYLAWYQQKPGKAPKLLIYAASSLQSGVPSRFSGSGSGTDFTLTISSLQPEDFATYYCQQSYSTPPTFGPGTKVDIK
notes: also called PD1AB38 Fab

EC50 of SHP-2 recruitment, PD-1 reporter Jurkat cells, Ig-tethered test article on anti-human IgG coated plates [2]: 4.83 nM
EC50 of SHP-2 recruitment, PD-1 reporter Jurkat cells, soluble test article [2]: 1.21 nM
kon (human PD-1 [3]): 67600 M⁻¹ s⁻¹ and 41300 M⁻¹ s⁻¹
response (human PD-1 [3]): 0.227
koff (mouse PD-1 [4]): 0.0228 s⁻¹ and 0.0657 s⁻¹
kon (mouse PD-1 [4]): 5940 M⁻¹ s⁻¹ and 2670 M⁻¹ s⁻¹
response (mouse PD-1 [4]): 0.0367
Kd (cynomolgus PD-1 [5]): 13.5 nM
koff (cynomolgus PD-1 [5]): 0.000531 s⁻¹
kon (cynomolgus PD-1 [5]): 39400 M⁻¹ s⁻¹
B4: PD1AB53 (bispecific antibody, human IgG1, kappa)
heavy: EVQLLESGGGLVQPGGSLRLSCAASGFTFSSYDMSWVRQAPGKGLEWVSGITISGGSTYYADSVKGRFTISRDNSKNTLYLQMNSLRAEDTAVYYCARGRGGSGWLDYWGQGTTVTVSSASTKGPSVFPLAPSSKSTSGGTAALGCLVKDYFPEPVTVSWNSGALTSGVHTFPAVLQSSGLYSLSSVVTVPSSSLGTQTYICNVNHKPSNTKVDKKVEPKSCDKTHTCPPCPAPEAAGAPSVFLFPPKPKDTLMISRTPEVTCVVVDVSHEDPEVKFNWYVDGVEVHNAKTKPREEQYNSTYRVVSVLTVLHQDWLNGKEYKCKVSNKALPAPIEKTISKAKGQPREPQVYTLPPSREEMTKNQVSLTCLVKGFYPSDIAVEWESNGQPENNYKTTPPVLDSDGSFFLYSKLTVDKSRWQQGNVFSCSVMHEALHNHYTQKSLSLSPGGGGSEGGGSEGGGSEDIQMTQSPSSLSASVGDRVTITCQASRDIKNYLAWYQQKPGKAPKLLIYAASSLQSGVPSRFSGSGSGTDFTLTISSLQPEDFATYYCQQSYSTPPTFGCGTKVDIKGGGGSGGGGSGGGGSGGGGSEVQLVQSGAEVKKPGASVKVSCKASGYSFTTYYMHWVRQAPGQCLEWMGIINPSGGSTSYAQKFQGRVTMTRDTSTSTVYMELSSLRSEDTAVYYCASGWVYWGQGTLVTVSS
light: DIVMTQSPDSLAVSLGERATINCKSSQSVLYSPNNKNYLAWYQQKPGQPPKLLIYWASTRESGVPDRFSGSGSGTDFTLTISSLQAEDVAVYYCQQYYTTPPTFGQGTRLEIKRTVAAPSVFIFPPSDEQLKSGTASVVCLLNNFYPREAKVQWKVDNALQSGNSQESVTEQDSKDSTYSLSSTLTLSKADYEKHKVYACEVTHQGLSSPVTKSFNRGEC

More lines, now with the values behind:

B1: scFv moiety of the PD1AB53 (scFv)
scFv: DIQMTQSPSSLSASVGDRVTITCQASRDIKNYLAWYQQKPGKAPKLLIYAASSLQSGVPSRFSGSGSGTDFTLTISSLQPEDFATYYCQQSYSTPPTFGCGTKVDIKGGGGSGGGGSGGGGSGGGGSEVQLVQSGAEVKKPGASVKVSCKASGYSFTTYYMHWVRQAPGQCLEWMGIINPSGGSTSYAQKFQGRVTMTRDTSTSTVYMELSSLRSEDTAVYYCASGWVYWGQGTLVTVSS
notes: also called PD1AB53 scFv
Kd (Fc-tagged mouse PD-1): 1060 nM
Kd [1]: 1170 nM
Kd (biotinylated huPD-1): 1350 nM

B2: Fab moiety of the PD1AB37 (Fab, V domains shown)
VH: EVQLVQSGAEVKKPGASVKVSCKASGYSFTSYYMHWVRQAPGQGLEWMGIINPSGGSTSYAQKFQGRVTMTRDTSTSTVYMELSSLRSEDTAVYYCASGWVYWGQGTLVTVSS
VL: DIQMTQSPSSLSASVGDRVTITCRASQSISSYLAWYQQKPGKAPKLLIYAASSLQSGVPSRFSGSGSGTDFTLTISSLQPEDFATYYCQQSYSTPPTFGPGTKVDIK
notes: also called PD1AB37 Fab
Kd (Fc-tagged mouse PD-1): 1350 nM
Kd [1]: 497 nM
Kd (biotinylated huPD-1): 330 nM

B5: PD1AB69 (bispecific antibody, human IgG1, kappa)
heavy: EVQLLESGGGLVQPGGSLRLSCAASGFTFSSYDMSWVRQAPGKGLEWVSGITISGGSTYYADSVKGRFTISRDNSKNTLYLQMNSLRAEDTAVYYCARGRGGSGWLDYWGQGTTVTVSSASTKGPSVFPLAPSSKSTSGGTAALGCLVKDYFPEPVTVSWNSGALTSGVHTFPAVLQSSGLYSLSSVVTVPSSSLGTQTYICNVNHKPSNTKVDKKVEPKSCDKTHTCPPCPAPEAAGAPSVFLFPPKPKDTLMISRTPEVTCVVVDVSHEDPEVKFNWYVDGVEVHNAKTKPREEQYNSTYRVVSVLTVLHQDWLNGKEYKCKVSNKALPAPIEKTISKAKGQPREPQVYTLPPSREEMTKNQVSLTCLVKGFYPSDIAVEWESNGQPENNYKTTPPVLDSDGSFFLYSKLTVDKSRWQQGNVFSCSVMHEALHNHYTQKSLSLSPGGGGSEGGGSEGGGSEDIQMTQSPSSLSASVGDRVTITCQASRDILNYLAWYQQKPGKAPKLLIYAASSLQSGVPSRFSGSGSGTDFTLTISSLQPEDFATYYCQQSYSTPPTFGCGTKVDIKGGGGSGGGGSGGGGSGGGGSEVQLVQSGAEVKKPGASVKVSCKASGYSFTTYYMHWVRQAPGQCLEWMGIINPSGGSTSYAQKFQGRVTMTRDTSTSTVYMELSSLRSEDTAVYYCASGWVYWGQGTLVTVSS
light: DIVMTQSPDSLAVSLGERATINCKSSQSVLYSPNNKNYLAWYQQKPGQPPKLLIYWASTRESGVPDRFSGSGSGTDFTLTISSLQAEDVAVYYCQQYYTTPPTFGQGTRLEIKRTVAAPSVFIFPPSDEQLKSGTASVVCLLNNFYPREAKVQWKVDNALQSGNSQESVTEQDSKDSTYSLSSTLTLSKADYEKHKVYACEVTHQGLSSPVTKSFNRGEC
binding result (human PD-1 [6]): binds
binding result (mouse PD-1 [7]): binds
binding result (cynomolgus PD-1 [8]): binds

B6: PD1AB37 (bispecific antibody, human IgG1, kappa)
heavy: EVQLVQSGAEVKKPGASVKVSCKASGYSFTSYYMHWVRQAPGQGLEWMGIINPSGGSTSYAQKFQGRVTMTRDTSTSTVYMELSSLRSEDTAVYYCASGWVYWGQGTLVTVSSASTKGPSVFPLAPSSKSTSGGTAALGCLVKDYFPEPVTVSWNSGALTSGVHTFPAVLQSSGLYSLSSVVTVPSSSLGTQTYICNVNHKPSNTKVDKKVEPKSCDKTHTCPPCPAPEAAGAPSVFLFPPKPKDTLMISRTPEVTCVVVDVSHEDPEVKFNWYVDGVEVHNAKTKPREEQYNSTYRVVSVLTVLHQDWLNGKEYKCKVSNKALPAPIEKTISKAKGQPREPQVYTLPPSREEMTKNQVSLTCLVKGFYPSDIAVEWESNGQPENNYKTTPPVLDSDGSFFLYSKLTVDKSRWQQGNVFSCSVMHEALHNHYTQKSLSLSPGGGGGSGGGGSGGGGSEVQLLESGGGLVQPGGSLRLSCAASGFTFSSYDMSWVRQAPGKGLEWVSGITISGGSTYYADSVKGRFTISRDNSKNTLYLQMNSLRAEDTAVYYCARGRGGSGWLDYWGQGTTVTVSSGGGGSGGGGSGGGGSGGGGSDIVMTQSPDSLAVSLGERATINCKSSQSVLYSPNNKNYLAWYQQKPGQPPKLLIYWASTRESGVPDRFSGSGSGTDFTLTISSLQAEDVAVYYCQQYYTTPPTFGQGTRLEIK
light: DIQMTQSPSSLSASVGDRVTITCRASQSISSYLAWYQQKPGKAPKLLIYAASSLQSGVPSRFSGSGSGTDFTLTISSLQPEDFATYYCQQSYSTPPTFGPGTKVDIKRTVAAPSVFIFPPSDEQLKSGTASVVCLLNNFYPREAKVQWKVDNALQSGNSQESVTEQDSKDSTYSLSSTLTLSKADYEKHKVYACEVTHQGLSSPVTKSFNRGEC
EC50 of SHP-2 recruitment, PD-1 reporter Jurkat cells, Ig-tethered test article on anti-human IgG coated plates [2]: 24.5 nM
EC50 of SHP-2 recruitment, PD-1 reporter Jurkat cells, soluble test article [2]: 0.37 nM
Kd (human PD-1 [3]): 18.3 nM
koff (human PD-1 [3]): 0.000824 s⁻¹
kon (human PD-1 [3]): 45000 M⁻¹ s⁻¹
Kd (mouse PD-1 [4]): 4860 nM
koff (mouse PD-1 [4]): 0.0245 s⁻¹
kon (mouse PD-1 [4]): 5050 M⁻¹ s⁻¹
Kd (cynomolgus PD-1 [5]): 15.4 nM
koff (cynomolgus PD-1 [5]): 0.000566 s⁻¹
kon (cynomolgus PD-1 [5]): 36800 M⁻¹ s⁻¹

B7: scFv moiety of the PD1AB37 (scFv)
scFv: EVQLLESGGGLVQPGGSLRLSCAASGFTFSSYDMSWVRQAPGKGLEWVSGITISGGSTYYADSVKGRFTISRDNSKNTLYLQMNSLRAEDTAVYYCARGRGGSGWLDYWGQGTTVTVSSGGGGSGGGGSGGGGSGGGGSDIVMTQSPDSLAVSLGERATINCKSSQSVLYSPNNKNYLAWYQQKPGQPPKLLIYWASTRESGVPDRFSGSGSGTDFTLTISSLQAEDVAVYYCQQYYTTPPTFGQGTRLEIK
notes: also called PD1AB37 scFv
binding result (Fc-tagged mouse PD-1): no binding
Kd [1]: 58.6 nM
Kd (biotinylated huPD-1): 89.9 nM

B8: Fab moiety of the PD1AB53 (Fab, V domains shown)
VH: EVQLLESGGGLVQPGGSLRLSCAASGFTFSSYDMSWVRQAPGKGLEWVSGITISGGSTYYADSVKGRFTISRDNSKNTLYLQMNSLRAEDTAVYYCARGRGGSGWLDYWGQGTTVTVSS
VL: not shown
notes: also called PD1AB53 Fab
binding result (Fc-tagged mouse PD-1): no binding (tested: PD1AB53 Fab: dilution series from 500 nM)
Kd [1]: 30.3 nM
Kd (biotinylated huPD-1): 32.6 nM
